Source: the nanobody polyreactivity screen of Harvey et al. (2022)

Experiment: yeast display, Sf9 membrane polyspecificity reagent, FACS + sequencing; frameworks hold sequencing errors
In short: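 Using colony PCR, genes from sorted yeast display clones were amplified, then sequenced on MiSeq at 2 × 250 and filtered by CDR length. The clones had been stained with 10% biotinylated, detergent-solubilized Sf9 membrane reagent for 1 hour at 4 °C and sorted by FACS into low and high (top ~1%) gates on anti-HA and streptavidin fluorescence. Polyreactivity labels come from the gate of origin.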

Sequence	polyreactivity (PSR sort gate)
QVQLVESGGGLVQAGGSLRLSCAASGITFVANAMGWYRQAPGKERELVAAISYSGASTYADSVKGRFTISRDNAKNTVYLQMNSLKPEDTAVYYCAKDGPYTYGREIYVYWGQGTLVTVSS	low polyreactivity
QVQLVESGGGLVQAGGSLRLSCAASGITFVANAMGWYRQAPGKETELVAGITQTGGSTYYADSVKGRFTISRDKAKNTVYLQMNSQKPEDTAVYYCAATYRRLRYGKLYYYWGQGTQVTVSS	high polyreactivity
QVQLVESGGGLVQAGGSLRLSCAASGITFVDNAMGWYRQAPGKERELVAAISFSGDTTYYADSVKGRFTISRDNEKNTVYLQMNSLKPEDTAVYYCAAEYYYTWVYQYWEMDYWGQGTQVTVSS	low polyreactivity
QVQLVESGGGLVQAGGSLRLSCAASGITFVDYAMGWYRQAPGKEWELVAAITTGGSTNYADSVKGRFTISRDNAKNTVYLQMNRLKPEDTAVYYCNKRPVILYDYWGQGTQVTVSS	low polyreactivity
QVQLVESGGGLVQAGGSLRLSCAASGITFVFNVMGWSRQAPGKERELVADIRSGGTTNYADSVKGRFTISRDNAKNTVYIQMNSLKPEDTAVYYCAKEKYDYVGDYEVDYWGQGTQVTVSS	low polyreactivity
QVQLVESGGGLVQAGGSLRLSCAASGITFVFYTMGWYRQAPGKERELVAAITSSGVRTSYADSVKGRFTISRDNAKNTVYLQMNSLKPEDTAVYYCAAKPTYVHKPGYNYWGQGTQVTVSS	high polyreactivity
QVQLVESGGGLVQAGGSLRLSCAASGITFVGNAMGWYRQAPGKERELVAAITSSGSTHYADSVKGRFTISRDNAKNTVYLQMNSLKPEDTAVYYCAAVTRFSGGLYYYWGQGTQVTVSS	high polyreactivity
QVQLVESGGGLVQAGGSLRLSCAASGITFVQYAMGWYRQAPGKERELVAAITSDGRTYYADSVKGRFTISRDNAKNTVYLQMNSLKREDTAVYYCAADVWRYTAYGGAYRRDYWGQGTQVTVSS	low polyreactivity
QVQLVESGGGLVQAGGSLRLSCAASGITFVRNAMGWYRQAPGKERELVAAISGRGGITYYADSVKGRFTISRDNAKNTVYFQMNSLKPEDTAVYYCAASSAGSSYNYWGQGSQVTVSS	high polyreactivity
QVQLVESGGGLVQAGGSLRLSCAASGITFVRYAMGWYRQAPGKERELVATITRRGGSTYYADSVKGRFTISRDNAKNTVYLQMNSLKPEDTAVYYCAADAYIWLYTDFPAYDYWGQGTHVTVSS	high polyreactivity
QVQLVESGGGLVQAGGSLRLSCAASGITFVRYTMGWYRQAPGKERQFVAGITRGGSTCYADSVKGRFTISRDNAKNTVYLQMNSLKPEDTAVYYCAARPRFLRASVEYDYWGQGTQVTVSS	high polyreactivity
QVQLVESGGGLVQAGGSLRLSCAASGITFVVYTMGWYRQAPGKERELVASISISGDSTNYAESVKGRFTISRDNAKNTVYLQMNILKPEDTAVYYCNAAFYHVQFPWIAYEYWGQGTQVTVSP	low polyreactivity
QVQLVESGGGLVQAGGSLRLSCAASGITFVYYAMGWYRQAPGKERELVAAISKNGGSTYYADSVKGRFTISRDNAMNTVYLQMNSLKPEDTAVYYCAAEEGYPWVRYNYWGQGPQVTVSS	high polyreactivity
QVQLVESGGGLVQAGGSLRLSCAASGITFWANAMGWYRQAPGKERELVASIRSSGGSTYYADSVKGRFTISRDNAKNTVYLQMNSLKPEDTAVYYCNARLGPLYVYRQYDSWGQGTQVTVSS	low polyreactivity
QVQLVESGGGLVQAGGSLRLSCAASGITFWDYAMGRYRQAPGKERELVAGISTRGGSTYYADSVKGRFTISRDNAKNTVYLQMNSLKPEDTAVYYCAADAQTSFGLGWGSDYDYWGQGTQVTVSS	low polyreactivity
QVQLVESGGGLVQAGGSLRLSCAASGITFWEYAMGWYRQAPGKERELVAAISRSGGSTYYADSVKGRFTISRDTAKNTVYLQMNSLKPEDTAVYYCAAYTRRPIYDYWGQGTQVTVSS	high polyreactivity
QVQLVESGGGLVQAGGSLRLSCAASGITFWEYAMGWYRQAPWKERELVAAISRSGGSTYYADSVKGRFTISRDNAKNTVYLQMNSLKPEDTAVYYCADETRRPIYDYWGQGTQVTVSS	high polyreactivity
